Entries after “also recorded” stand apart in the source; their conditions may differ.
Key:
[1] = molecular target: fusion protein PA
[2] = molecular target: fusion protein PA10
[3] = molecular target: fusion protein PA1A3′
[4] = molecular target: fusion protein PA1′A3′
[5] = molecular target: fusion protein PA2
[6] = molecular target: fusion protein PA23′
[7] = molecular target: fusion protein PA2′
[8] = molecular target: fusion protein PA2′3′
[9] = molecular target: fusion protein PA3
[10] = molecular target: fusion protein PA323′
[11] = molecular target: fusion protein PA3D23′
[12] = molecular target: fusion protein PA3′
[13] = molecular target: fusion protein PA4
[14] = molecular target: fusion protein PA4D23′
[15] = molecular target: fusion protein PA4′
[16] = molecular target: fusion protein PA5
[17] = molecular target: fusion protein PA5D23′
[18] = molecular target: fusion protein PA5′
[19] = molecular target: fusion protein PA6
[20] = molecular target: fusion protein PA7
[21] = molecular target: fusion protein PA8
[22] = molecular target: fusion protein PA9
[23] = molecular target: fusion protein PMT
[24] = molecular target: fusion protein PRA
[25] = molecular target: fusion protein PRC
[26] = molecular target: fusion protein PRD
[27] = molecular target: fusion protein PRE
[28] = molecular target: fusion protein PRF
[29] = molecular target: fusion protein PRG
[30] = molecular target: fusion protein PRH
[31] = molecular target: fusion protein PRI
[32] = molecular target: fusion protein PRK
[33] = molecular target: fusion protein PRL
[34] = molecular target: fusion protein PRM
[35] = molecular target: fusion protein PRMT
[36] = molecular target: fusion protein PRN
[37] = molecular target: fusion protein PRP
[38] = molecular target: fusion protein PRQ
[39] = molecular target: fusion protein PRR
[40] = molecular target: fusion protein PRS
[41] = molecular target: fusion protein PRT
[42] = molecular target: fusion protein PRV
[43] = molecular target: fusion protein PRW
[44] = molecular target: fusion protein PRY
[45] = molecular target: human adrenocorticotropic hormone(1-24) fusion protein PAC
[46] = molecular target: human calcitonin precursor fusion protein PCT

Sequence of fusion protein PA4D23′ (chain, as listed by the source): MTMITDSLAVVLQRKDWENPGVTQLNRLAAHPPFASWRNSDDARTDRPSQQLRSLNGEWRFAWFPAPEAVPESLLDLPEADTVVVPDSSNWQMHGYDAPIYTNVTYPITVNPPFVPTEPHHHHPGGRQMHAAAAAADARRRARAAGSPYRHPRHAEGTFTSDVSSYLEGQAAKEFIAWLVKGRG
Sequence of fusion protein PA3D23′ (chain, as listed by the source): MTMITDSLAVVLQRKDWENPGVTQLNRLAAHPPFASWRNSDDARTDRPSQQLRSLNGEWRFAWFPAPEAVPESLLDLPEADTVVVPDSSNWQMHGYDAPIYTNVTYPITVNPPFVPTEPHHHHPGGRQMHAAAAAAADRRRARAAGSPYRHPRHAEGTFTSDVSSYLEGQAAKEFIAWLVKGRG
Sequence of fusion protein PA5D23′ (chain, as listed by the source): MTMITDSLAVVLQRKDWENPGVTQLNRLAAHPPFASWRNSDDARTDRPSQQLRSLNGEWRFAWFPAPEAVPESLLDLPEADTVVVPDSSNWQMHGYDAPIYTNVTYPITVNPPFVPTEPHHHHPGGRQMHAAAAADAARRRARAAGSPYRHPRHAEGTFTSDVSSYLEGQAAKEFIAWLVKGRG
Sequence of fusion protein PA3′ (chain, as listed by the source): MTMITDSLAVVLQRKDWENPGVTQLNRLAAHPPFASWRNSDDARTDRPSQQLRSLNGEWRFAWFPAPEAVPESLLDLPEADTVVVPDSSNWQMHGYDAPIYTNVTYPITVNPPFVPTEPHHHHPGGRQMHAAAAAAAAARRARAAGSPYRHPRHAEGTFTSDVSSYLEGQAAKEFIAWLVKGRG
Sequence of fusion protein PA323′ (chain, as listed by the source): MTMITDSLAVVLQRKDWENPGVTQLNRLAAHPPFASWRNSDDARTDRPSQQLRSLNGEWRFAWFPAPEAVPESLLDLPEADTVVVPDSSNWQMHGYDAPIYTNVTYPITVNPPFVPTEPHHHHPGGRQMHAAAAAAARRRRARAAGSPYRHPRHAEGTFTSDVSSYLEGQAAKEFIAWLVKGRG
Sequence of fusion protein PA1′A3′ (chain, as listed by the source): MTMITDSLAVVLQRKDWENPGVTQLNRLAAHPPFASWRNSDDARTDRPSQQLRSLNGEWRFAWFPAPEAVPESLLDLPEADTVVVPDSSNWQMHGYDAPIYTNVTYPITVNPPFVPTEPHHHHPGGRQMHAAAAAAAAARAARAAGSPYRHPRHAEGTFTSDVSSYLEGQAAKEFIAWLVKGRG
Sequence of fusion protein PMT (chain, as listed by the source): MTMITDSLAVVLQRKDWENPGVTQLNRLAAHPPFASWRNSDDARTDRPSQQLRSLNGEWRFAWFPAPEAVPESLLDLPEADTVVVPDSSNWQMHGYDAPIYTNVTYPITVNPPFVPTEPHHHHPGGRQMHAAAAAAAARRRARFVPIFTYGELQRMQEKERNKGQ
Sequence of fusion protein PA23′ (chain, as listed by the source): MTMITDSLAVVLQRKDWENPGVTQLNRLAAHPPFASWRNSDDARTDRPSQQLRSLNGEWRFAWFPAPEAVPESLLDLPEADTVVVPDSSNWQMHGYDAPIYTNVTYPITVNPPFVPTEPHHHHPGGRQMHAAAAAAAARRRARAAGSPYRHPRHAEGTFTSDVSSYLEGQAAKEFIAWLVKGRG
Sequence of fusion protein PA2′3′ (chain, as listed by the source): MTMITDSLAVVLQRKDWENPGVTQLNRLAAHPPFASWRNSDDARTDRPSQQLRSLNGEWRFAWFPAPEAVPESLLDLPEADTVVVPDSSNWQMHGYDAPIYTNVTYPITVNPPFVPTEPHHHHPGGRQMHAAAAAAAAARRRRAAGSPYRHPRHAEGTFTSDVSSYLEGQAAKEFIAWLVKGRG
Sequence of fusion protein PA2′ (chain, as listed by the source): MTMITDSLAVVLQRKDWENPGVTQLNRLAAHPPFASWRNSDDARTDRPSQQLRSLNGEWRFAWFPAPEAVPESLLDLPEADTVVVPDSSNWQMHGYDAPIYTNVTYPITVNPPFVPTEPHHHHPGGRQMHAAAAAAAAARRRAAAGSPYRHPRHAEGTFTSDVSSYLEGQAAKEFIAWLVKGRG
Sequence of fusion protein PA5′ (chain, as listed by the source): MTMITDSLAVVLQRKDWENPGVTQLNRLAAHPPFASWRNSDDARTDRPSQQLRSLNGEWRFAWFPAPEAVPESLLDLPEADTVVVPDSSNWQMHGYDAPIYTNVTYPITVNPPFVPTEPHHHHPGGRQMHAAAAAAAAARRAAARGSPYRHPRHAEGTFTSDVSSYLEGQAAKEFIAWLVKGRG
Sequence of fusion protein PA4′ (chain, as listed by the source): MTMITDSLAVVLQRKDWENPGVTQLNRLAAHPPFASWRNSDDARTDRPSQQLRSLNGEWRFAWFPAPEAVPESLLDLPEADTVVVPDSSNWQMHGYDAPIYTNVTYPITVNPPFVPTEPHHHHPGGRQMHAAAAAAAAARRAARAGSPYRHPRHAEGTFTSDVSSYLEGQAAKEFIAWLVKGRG
Sequence of fusion protein PA1A3′ (chain, as listed by the source): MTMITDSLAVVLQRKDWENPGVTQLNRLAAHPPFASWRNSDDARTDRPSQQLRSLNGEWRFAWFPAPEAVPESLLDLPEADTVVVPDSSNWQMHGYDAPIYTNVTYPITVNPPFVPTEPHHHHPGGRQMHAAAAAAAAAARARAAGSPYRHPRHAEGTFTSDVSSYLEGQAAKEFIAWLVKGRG
Sequence of fusion protein PA2 (chain, as listed by the source): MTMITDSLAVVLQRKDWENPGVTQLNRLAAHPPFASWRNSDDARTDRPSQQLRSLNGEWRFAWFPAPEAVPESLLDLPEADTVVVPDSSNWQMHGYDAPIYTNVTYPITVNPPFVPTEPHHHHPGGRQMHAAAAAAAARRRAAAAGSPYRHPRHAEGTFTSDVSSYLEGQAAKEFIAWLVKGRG
Sequence of fusion protein PA7 (chain, as listed by the source): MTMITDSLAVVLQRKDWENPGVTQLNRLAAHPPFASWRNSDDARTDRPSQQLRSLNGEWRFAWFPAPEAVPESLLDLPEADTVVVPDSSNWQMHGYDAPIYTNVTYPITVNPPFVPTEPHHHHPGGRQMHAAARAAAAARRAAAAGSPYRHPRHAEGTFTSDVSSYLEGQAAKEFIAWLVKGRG
Sequence of fusion protein PA5 (chain, as listed by the source): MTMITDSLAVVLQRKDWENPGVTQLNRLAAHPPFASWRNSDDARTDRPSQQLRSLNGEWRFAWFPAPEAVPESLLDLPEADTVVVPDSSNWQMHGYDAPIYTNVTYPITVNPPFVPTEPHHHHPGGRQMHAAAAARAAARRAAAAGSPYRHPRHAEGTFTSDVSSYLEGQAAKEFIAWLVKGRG
Sequence of fusion protein PA3 (chain, as listed by the source): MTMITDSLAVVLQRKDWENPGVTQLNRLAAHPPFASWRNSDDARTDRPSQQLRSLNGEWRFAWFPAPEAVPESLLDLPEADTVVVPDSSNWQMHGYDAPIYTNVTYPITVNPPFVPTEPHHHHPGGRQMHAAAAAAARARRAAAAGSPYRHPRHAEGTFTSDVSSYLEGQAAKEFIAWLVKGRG
Sequence of fusion protein PA8 (chain, as listed by the source): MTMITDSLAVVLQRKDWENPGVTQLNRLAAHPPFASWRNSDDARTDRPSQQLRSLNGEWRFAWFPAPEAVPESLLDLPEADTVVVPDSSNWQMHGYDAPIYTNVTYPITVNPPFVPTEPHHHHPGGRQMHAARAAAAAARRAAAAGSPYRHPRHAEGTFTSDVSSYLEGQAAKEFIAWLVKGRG
Sequence of fusion protein PA9 (chain, as listed by the source): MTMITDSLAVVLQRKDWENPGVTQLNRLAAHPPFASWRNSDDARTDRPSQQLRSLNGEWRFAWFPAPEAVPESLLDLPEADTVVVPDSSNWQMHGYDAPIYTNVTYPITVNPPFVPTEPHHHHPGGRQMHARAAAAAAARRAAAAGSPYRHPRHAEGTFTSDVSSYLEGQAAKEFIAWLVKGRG
Sequence of fusion protein PA6 (chain, as listed by the source): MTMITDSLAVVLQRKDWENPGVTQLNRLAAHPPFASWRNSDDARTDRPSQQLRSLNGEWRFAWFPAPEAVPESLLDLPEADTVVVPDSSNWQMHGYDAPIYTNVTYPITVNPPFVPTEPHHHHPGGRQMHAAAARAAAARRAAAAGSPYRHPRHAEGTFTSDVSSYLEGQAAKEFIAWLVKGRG
Sequence of fusion protein PA4 (chain, as listed by the source): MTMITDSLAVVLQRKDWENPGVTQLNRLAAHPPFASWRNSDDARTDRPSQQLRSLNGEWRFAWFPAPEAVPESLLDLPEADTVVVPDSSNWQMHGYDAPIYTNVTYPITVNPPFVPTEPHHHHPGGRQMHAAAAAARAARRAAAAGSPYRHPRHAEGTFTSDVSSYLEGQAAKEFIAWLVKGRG
Sequence of fusion protein PA10 (chain, as listed by the source): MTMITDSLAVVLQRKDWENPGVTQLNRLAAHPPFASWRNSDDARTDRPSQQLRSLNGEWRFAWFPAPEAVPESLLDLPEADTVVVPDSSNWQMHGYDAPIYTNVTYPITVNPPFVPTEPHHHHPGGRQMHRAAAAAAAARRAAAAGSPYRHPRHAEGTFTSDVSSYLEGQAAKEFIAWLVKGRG
Sequence of fusion protein PRM (chain, as listed by the source): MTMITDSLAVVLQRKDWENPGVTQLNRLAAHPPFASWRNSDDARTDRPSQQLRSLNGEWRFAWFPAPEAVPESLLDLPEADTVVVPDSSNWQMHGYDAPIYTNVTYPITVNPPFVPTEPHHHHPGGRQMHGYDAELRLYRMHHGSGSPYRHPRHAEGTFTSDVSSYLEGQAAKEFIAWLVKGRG
Sequence of fusion protein PRN (chain, as listed by the source): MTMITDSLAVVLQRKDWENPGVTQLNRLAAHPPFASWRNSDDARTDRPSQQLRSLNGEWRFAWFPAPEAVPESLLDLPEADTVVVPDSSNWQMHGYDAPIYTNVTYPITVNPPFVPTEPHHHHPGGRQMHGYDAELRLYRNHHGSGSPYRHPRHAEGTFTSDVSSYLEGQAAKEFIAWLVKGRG
Sequence of fusion protein PRY (chain, as listed by the source): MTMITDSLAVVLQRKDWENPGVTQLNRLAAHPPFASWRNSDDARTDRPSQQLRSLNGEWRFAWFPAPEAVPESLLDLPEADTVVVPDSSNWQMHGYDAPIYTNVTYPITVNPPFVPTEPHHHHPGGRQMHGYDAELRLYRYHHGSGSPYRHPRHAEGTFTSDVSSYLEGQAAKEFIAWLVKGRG

B1: OmpT protease (wild-type, E. coli mature OmpT protease) (protein)
chain: STETLSFTPDNINADISLGTLSGKTKERVYLAEEGGRKVSQLDWKFNNAAIIKGAINWDLMPQISIGAAGWTTLGSRGGNMVDQDWMDSSNPGTWTDESRHPDTQLNYANEFDLNIKGWLLNEPNYRLGLMAGYQESRYSFTARGGSYIYSSEEGFRDDIGSFPNGERAIGYKQRFKMPYIGLTGSYRYEDFELGGTFKYSGWVESSDNDEHYDPGKRITYRSKVKDQNYYSVAVNAGYYVTPNAKVYVEGAWNRVTNKKGNTSLYDHNNNTSDYSKNGAGIENYNFITTAGLKYTF
cleavage efficiency (reference) [1]: the cleavage efficiency of the fusion protein PA is 100%
cleavage (HPLC, mass analysis) [2]: All of the PAn proteins underwent cleavage by OmpT protease at the same site as PA
cleavage efficiency against PA [2]: Increase in cleavage efficiency was seen for all of the PAn proteins except for PA2 and PA2′
cleavage (HPLC, mass analysis) [3]: PA1A3′ and PA1′A3′ were both cleaved at Arg^143-Ala^144
cleavage efficiency against PA [3]: all of the cleavage efficiencies were lower than the cleavage efficiency at Arg^140-Arg^141 of PA
cleavage (HPLC, mass analysis) [4]: PA1A3′ and PA1′A3′ were both cleaved at Arg^143-Ala^144; also recorded: Cleavage was also confirmed at Arg^140-Ala^141 in PA1′A3′
cleavage efficiency against PA [4]: all of the cleavage efficiencies were lower than the cleavage efficiency at Arg^140-Arg^141 of PA
cleavage (HPLC, mass analysis) [5]: All of the PAn proteins underwent cleavage by OmpT protease at the same site as PA, while PA2, PA2′ and PA3′ also underwent cleavage at other sites
cleavage efficiency against PA [5]: the cleavage efficiencies of PA2 and PA2′ were reduced to about ⅓
cleavage (HPLC, mass analysis) [6]: It was confirmed that PA23′, PA323′ and PA2′3′ are cleaved at Arg^143-Ala^144
cleavage efficiency at Arg^143-Ala^144 against Arg^140-Arg^141 of PA [6]: 2.9 times the cleavage efficiency at Arg^140-Arg^141 of PA
cleavage (HPLC, mass analysis) [7]: All of the PAn proteins underwent cleavage by OmpT protease at the same site as PA, while PA2, PA2′ and PA3′ also underwent cleavage at other sites
cleavage efficiency against PA [7]: the cleavage efficiencies of PA2 and PA2′ were reduced to about ⅓
cleavage (HPLC, mass analysis) [8]: It was confirmed that PA23′, PA323′ and PA2′3′ are cleaved at Arg^143-Ala^144
cleavage efficiency at Arg^143-Ala^144 against Arg^140-Arg^141 of PA [8]: low at 63% of the cleavage efficiency at Arg^140-Arg^141 of PA
cleavage (HPLC, mass analysis) [9]: All of the PAn proteins underwent cleavage by OmpT protease at the same site as PA
cleavage efficiency against PA [9]: Increase in cleavage efficiency was seen for all of the PAn proteins except for PA2 and PA2′
cleavage (HPLC, mass analysis) [10]: It was confirmed that PA23′, PA323′ and PA2′3′ are cleaved at Arg^143-Ala^144
cleavage at Arg^140-Arg^141 against Arg^143-Ala^144 [10]: at 59% the cleavage efficiency at Arg^143-Ala^144
cleavage efficiency at Arg^143-Ala^144 against Arg^140-Arg^141 of PA [10]: also 2.9 times the cleavage efficiency at Arg^140-Arg^141 of PA
cleavage (HPLC, mass analysis) [11]: the major cleavage site of PA5D23′, PA4D23′ and PA3D23′ is Arg^143-Ala^144
cleavage at Arg^139-Arg^140 and Arg^140-Arg^141 [11]: no cleavage was detected at Arg^139-Arg^140 and Arg^140-Arg^141, similar to PA4D23′
cleavage efficiency at Arg^143-Ala^144 against Arg^140-Arg^141 of PA [11]: about the same as the cleavage efficiency at Arg^140-Arg^141 of PA, and lower than PA4D23′
cleavage (HPLC, mass analysis) [12]: All of the PAn proteins underwent cleavage by OmpT protease at the same site as PA, while PA2, PA2′ and PA3′ also underwent cleavage at other sites
cleavage efficiency against PA [12]: Increase in cleavage efficiency was seen for all of the PAn proteins except for PA2 and PA2′
cleavage efficiency at Arg^140-Arg^141 (PA = 100%) [12]: cleavage efficiencies: 220%, 73%
cleavage efficiency at Arg^143-Ala^144 (PA = 100%) [12]: cleavage efficiencies: 220%, 73%
cleavage (HPLC, mass analysis) [13]: All of the PAn proteins underwent cleavage by OmpT protease at the same site as PA
cleavage efficiency against PA [13]: PA4 had the highest cleavage efficiency of about 5 times that of PA
cleavage (HPLC, mass analysis) [14]: the major cleavage site of PA5D23′, PA4D23′ and PA3D23′ is Arg^143-Ala^144
cleavage at Arg^139-Arg^140 and Arg^140-Arg^141 [14]: no cleavage was detected at Arg^139-Arg^140 and Arg^140-Arg^141 as was detected with PA23′
cleavage efficiency at Arg^143-Ala^144 against Arg^140-Arg^141 of PA [14]: low compared to PA23′, but twice the cleavage efficiency at Arg^140-Arg^141 of PA
cleavage (HPLC, mass analysis) [15]: All of the PAn proteins underwent cleavage by OmpT protease at the same site as PA
cleavage efficiency against PA [15]: Increase in cleavage efficiency was seen for all of the PAn proteins except for PA2 and PA2′
cleavage (HPLC, mass analysis) [16]: All of the PAn proteins underwent cleavage by OmpT protease at the same site as PA
cleavage efficiency against PA [16]: Increase in cleavage efficiency was seen for all of the PAn proteins except for PA2 and PA2′
cleavage (HPLC, mass analysis) [17]: the major cleavage site of PA5D23′, PA4D23′ and PA3D23′ is Arg^143-Ala^144
cleavage at Arg^140-Arg^141 [17]: cleavage was also observed at Arg^140-Arg^141
cleavage efficiency at Arg^143-Ala^144 against Arg^140-Arg^141 of PA [17]: 1.9 times the cleavage efficiency at Arg^140-Arg^141 of PA
cleavage (HPLC, mass analysis) [18]: All of the PAn proteins underwent cleavage by OmpT protease at the same site as PA
cleavage efficiency against PA [18]: Increase in cleavage efficiency was seen for all of the PAn proteins except for PA2 and PA2′
cleavage (HPLC, mass analysis) [19]: All of the PAn proteins underwent cleavage by OmpT protease at the same site as PA
cleavage efficiency against PA [19]: Increase in cleavage efficiency was seen for all of the PAn proteins except for PA2 and PA2′
cleavage (HPLC, mass analysis) [20]: All of the PAn proteins underwent cleavage by OmpT protease at the same site as PA
cleavage efficiency against PA [20]: Increase in cleavage efficiency was seen for all of the PAn proteins except for PA2 and PA2′
cleavage (HPLC, mass analysis) [21]: All of the PAn proteins underwent cleavage by OmpT protease at the same site as PA
cleavage efficiency against PA [21]: Increase in cleavage efficiency was seen for all of the PAn proteins except for PA2 and PA2′
cleavage (HPLC, mass analysis) [22]: All of the PAn proteins underwent cleavage by OmpT protease at the same site as PA
cleavage efficiency against PA [22]: Increase in cleavage efficiency was seen for all of the PAn proteins except for PA2 and PA2′
cleavage (SDS-PAGE, HPLC) [23]: cleavage of the fusion protein PMT by OmpT protease was confirmed
release of human motilin (cleavage at Arg^143-Phe^144) [23]: only a very slight amount of peptide cleavage fragment of Arg^143-Phe^144, i.e. human motilin, was detected by mass analysis
relative cleavage efficiency: RAR-motilin (Arg^140-Arg^141) ([23]; scale: relative): 23
relative cleavage efficiency: RRAR-motilin (Arg^139-Arg^140) ([23]; scale: relative): 100
relative cleavage efficiency [24]: 5.4%
relative cleavage efficiency [25]: 3.1%
relative cleavage efficiency [26]: less than 3%
relative cleavage efficiency [27]: less than 3%
relative cleavage efficiency [28]: < 3%
relative cleavage efficiency [29]: less than 3%
relative cleavage efficiency [30]: less than 3%
relative cleavage efficiency [31]: < 3%
relative cleavage efficiency [32]: 88%
relative cleavage efficiency [33]: less than 3%
relative cleavage efficiency [34]: < 3%
cleavage (SDS-PAGE) [35]: no cleavage of PRMT was detected
relative cleavage efficiency [36]: < 3%
relative cleavage efficiency [37]: less than 3%
relative cleavage efficiency [38]: less than 3%
relative cleavage efficiency [39]: 100%
relative cleavage efficiency [40]: 3.9%
relative cleavage efficiency [41]: < 3%
relative cleavage efficiency [42]: 3.5%
relative cleavage efficiency [43]: less than 3%
relative cleavage efficiency [44]: < 3%
cleavage (HPLC, mass analysis) [45]: The fusion protein PAC was cleaved at Arg^143-Ser^144 by wild-type OmpT protease to release human adrenocorticotropic hormone(1-24)
cleavage (HPLC, mass analysis) [46]: The fusion protein PCT was cleaved at Arg^139-Arg^140 and Arg^140-Arg^141 by wild-type OmpT protease, releasing RRAR-CT and RAR-CT
